Measurements reported in patent US20210246200A1 (UNIVERSIT T Z RICH, published 2021).
Residue numbers refer to the chain shown, from its start. Names may count otherwise.

B1: 104341 (antibody, V domains shown)
VH: QVQLVQSGAEVKKPGSSVKVSCKASGYAFTNYLIEWVRQAPGQGLEWMGVINPGSGGTNYNEKFKGRVTITADKSTSTAYMELSSLRSEDTAVYYCARWRGDGYYAYFDVWGQGTTVTVSS
VL: AIRLTQSPSSFSASTGDRVTITCKASQSVDYDGDSYMNWYQQKPGKAPKLLIYAASNLESGVPSRFSGSGSGTDFTLTISSLQSEDFATYYCQQSNEDPYTFGGGTKVEIK
notes: VH1/VK1
B2: 104344 (antibody, V domains shown)
VH: B1 VH
VL: EIVLTQSPATLSVSPGERATLSCRASQSVSYDGDSYMNWYQQKPGQAPRLLIYAASNLASGIPARFSGSGSGTEFTLTISSLQSEDAAVYYCQQSNEDPYTFGGGTKVEIK
notes: VH1/VK3s
B3: 104345 (antibody, V domains shown)
VH: QVQLVESGGGVVQPGRSLRLSCAASGYTFSSYLIEWVRQAPGKGLEWVAVINPGSGGTNYADSVKGRFTISADKSKNTAYLQMNSLRAEDTAVYYCARWRGDGYYAYFDVWGQGTTVTVSS
VL: B1 VL
notes: VH3s/VK1
B4: 104346 (antibody, V domains shown)
VH: B3 VH
VL: DIVLTQSPLSLPVTLGQPASISCKASQSVDYDGDSYMNWYQQRPGQSPRLLIYAASNLESGVPDRFSGSGSGTDFTLKISRVEAEDVGVYYCQQSNEDPYTFGGGTKVEIK
notes: VH3s/VK2
B5: 108929 (antibody, human IgG1, kappa, N297A, V domains shown)
VH: EVQLVQSGAEVKKPGESLKISCKGSGYAFSNYLIEWVRQMPGKGLEWMGVINPGSGGTYYNEKFKGQVTISADKSISTAYLQWSSLKASDTAMYYCARWRGEGYYAYFDVWGQGTTVTVSS
VL: AIRLTQSPSSFSASTGDRVTITCKASQSVDYQGDSYMNWYQQKPGKAPKLLIYTASNLESGVPSRFSGSGSGTDFTLTISSLQSEDFATYYCQQSNEDPYTFGGGTKVEIKR
B6: 104350 (antibody, V domains shown)
VH: B5 VH with S30T, Y59N, E102D
VL: B2 VL
notes: VH5/VK3s
B7: Antibody No: 8 (antibody, human IgG1, kappa, N297A, V domains shown)
VH: B5 VH with S30T, Y59N, F108Y
VL: B5 VL with T54S
notes: VK A50S; also called 108923
B8: Antibody No: 12 (antibody, human IgG1, kappa, N297A, V domains shown)
VH: B5 VH with S30T
VL: B5 VL with M37L, T54A
notes: VH N58Y; VK M33L; also called 108924
B9: 108930 (antibody, human IgG1, kappa, N297A, V domains shown)
VH: B5 VH
VL: B5 VL with M37L, T54S
B10: Antibody No: 26 (antibody, human IgG1, kappa, N297A, V domains shown)
VH: B5 VH
VL: B5 VL with T54A
notes: VH N58Y + T30S; VK WT; HEK293F supernatant; 108929 is kept apart
B11: Antibody No: 31 (antibody, human IgG1, kappa, N297A, V domains shown)
VH: B5 VH with F108Y
VL: B5 VL with T54A
notes: VK WT; HEK293F supernatant
B12: Antibody No: 27 (antibody, human IgG1, kappa, N297A, V domains shown)
VH: B5 VH
VL: B5 VL with M37L, T54A
notes: VH N58Y + T30S; VK M33L; HEK293F supernatant
B13: Antibody No: 24 (antibody, human IgG1, kappa, N297A, V domains shown)
VH: B5 VH with Y59N, F108Y
VL: B5 VL
notes: VK A50T; HEK293F supernatant
B14: Antibody No: 29 (antibody, human IgG1, kappa, N297A, V domains shown)
VH: B5 VH
VL: B5 VL
notes: VH N58Y + T30S; VK A50T; HEK293F supernatant
B15: Antibody No: 30 (antibody, human IgG1, kappa, N297A, V domains shown)
VH: B5 VH
VL: B5 VL with M37L, T54S
notes: VH N58Y + T30S; VK M33L + A50S; HEK293F supernatant
B16: Antibody No: 32 (antibody, human IgG1, kappa, N297A, V domains shown)
VH: B5 VH with F108Y
VL: B5 VL with M37L, T54A
notes: VK M33L; HEK293F supernatant
B17: Antibody No: 28 (antibody, human IgG1, kappa, N297A, V domains shown)
VH: B5 VH
VL: B5 VL with T54S
notes: VH N58Y + T30S; VK A50S; HEK293F supernatant; 108930 is kept apart
B18: Antibody No: 33 (antibody, human IgG1, kappa, N297A, V domains shown)
VH: B5 VH with F108Y
VL: B5 VL with T54S
notes: VK A50S; HEK293F supernatant
B19: Antibody No: 34 (antibody, human IgG1, kappa, N297A, V domains shown)
VH: B5 VH with F108Y
VL: B5 VL
notes: VK A50T; HEK293F supernatant
B20: Antibody No: 35 (antibody, human IgG1, kappa, N297A, V domains shown)
VH: B5 VH with F108Y
VL: B5 VL with M37L, T54S
notes: VK M33L + A50S; HEK293F supernatant
B21: Antibody No: 25 (antibody, human IgG1, kappa, N297A, V domains shown)
VH: B5 VH with Y59N, F108Y
VL: B5 VL with M37L, T54S
notes: as for B20

These binders were tested against T1, Proleukin® (aldesleukin) (human, UniProt P60568 21-153, limits assumed) (assay: ELISA, coated Proleukin, mean of 3 experiments;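 note: binding of anti-human IL-2 antibodies, tested as an 11-point dilution series for 2 hours, to plate-bound IL-2, detected via streptavidin-HRP with absorbance read at 450 nm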).
T1 construct: Variant of human wt IL-2 with C145S (C125S on mature IL-2); also called IL-2 (Proleukin®); human IL-2 (Proleukin)
T1 sequence (P60568 other isoform, or with tags, fused parts or gaps limits assumed): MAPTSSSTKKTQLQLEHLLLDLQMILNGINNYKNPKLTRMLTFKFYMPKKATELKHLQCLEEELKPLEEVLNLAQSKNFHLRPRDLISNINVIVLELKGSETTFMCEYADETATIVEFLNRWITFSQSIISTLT
Experimental: ELISA plates (Corning) were coated with human IL-2 (Proleukin) at 10 μg/mL in PBS overnight at 4° C. The plates were washed 6 times with PBST, then blocked in 1% BSA/PBST for 2 hours. After blocking and washing, the anti-human IL-2 antibodies were added on the plate in an 11-point dilution series in 1% BSA/PBST and incubated for 2 hours. […] The plates were then washed again and incubated with Streptavidin-Horseradish Peroxidase in 1% BSA/PBS for 45 minutes. After washing, the substrate (R&D Systems) was added into the plates and the enzymatic reaction was stopped after 3 minutes by adding Stop Solution. The plates were read by a microplate reader at 450 nm with a wavelength correction set to 540 nm.

EC50 | Binder
0.4 nM | B1
0.7 nM | B2
2.9 nM | B3
1.7 nM | B4
0.15 nM | B5
0.8 nM | B6
0.05 nM | B7
0.11 nM | B8
0.06 nM | B9

The binders below were run against T1, Proleukin® (aldesleukin) (assay: ELISA, coated Proleukin, HEK293F supernatant 1:2).
Experimental: Subsequently, hIL-2 binding efficiency of the antibodies present in the supernatants was determined using ELISA. In brief, ELISA plates (Maxisorp 96-well black microtiter plate) were coated overnight at 4° C. with 100p/well of Proleukin® (5 μg/ml PBS). ELISA plates were washed once with TBST (1×TBS/0.05% Tween 20) using a plate-washer (BioTek). […] After removal of the blocking buffer, plates were washed once with TBST using the plate washer. Supernatants were diluted 1:2 in blocking buffer and 50 μl transferred to the designated well of the ELISA plate. Each sample was present on three ELISA plates. The three plates were incubated at RT under gentle agitation. […] The other two plates were washed either every hour three times with TBST for 4 hours or washed every hour three times for 12 hours before adding the detection antibody. […] Luminescence signal was measured after 5 minutes incubation in the dark. […] All ELISA values are mean values based on two measurements.

ELISA value (Normal ELISA) | ELISA value (wash 3x every hour for 4 HRS) | ELISA value (wash 3x every hour for 12 HRS) | Binder
4030 luminescence signal | 4210 luminescence signal | 1800 luminescence signal | B10
9370 luminescence signal | 7310 luminescence signal | 2530 luminescence signal | B7
11400 luminescence signal | 10300 luminescence signal | 3400 luminescence signal | B11
7760 luminescence signal | 7000 luminescence signal | 2770 luminescence signal | B12
2770 luminescence signal | 1880 luminescence signal | 674 luminescence signal | B13
20000 luminescence signal | 17400 luminescence signal | 5960 luminescence signal | B8
6950 luminescence signal | 6850 luminescence signal | 2720 luminescence signal | B14
14900 luminescence signal | 14400 luminescence signal | 2800 luminescence signal | B15
7190 luminescence signal | 6210 luminescence signal | 3330 luminescence signal | B16
18500 luminescence signal | 18100 luminescence signal | 5870 luminescence signal | B17
3990 luminescence signal | 3570 luminescence signal | 1820 luminescence signal | B18
3860 luminescence signal | 3080 luminescence signal | 1360 luminescence signal | B19
4910 luminescence signal | 4040 luminescence signal | 1790 luminescence signal | B20
3570 luminescence signal | 3050 luminescence signal | 1080 luminescence signal | B21

Each binder was assayed against T1, Proleukin® (aldesleukin) (assay: ELISA, coated Proleukin, serially diluted supernatant).

EC50 | Binder
0.49 nM | B10
0.24 nM | B7
0.39 nM | B11
0.39 nM | B12
0.59 nM | B13
0.25 nM | B8
0.24 nM | B14
0.22 nM | B15
0.65 nM | B16
0.16 nM | B17
0.67 nM | B18
0.65 nM | B19
0.72 nM | B20
0.42 nM | B21
